# According to PMC5849714, “Direct coupling of detergent purified human mGlu5 receptor to the heterotrimeric G proteins Gq and Gs” (Scientific Reports, 2018):
# B1: SNAP-mGlu5-Δ856 (FLAG-SNAP-tagged human mGlu5 receptor truncated after A856) (receptor, UniProt P41594-2 21-856, looked up)
# chain: QSSERRVVAHMPGDIIIGALFSVHHQPTVDKVHERKCGAVREQYGIQRVEAMLHTLERINSDPTLLPNITLGCEIRDSCWHSAVALEQSIEFIRDSLISSEEEEGLVRCVDGSSSSFRSKKPIVGVIGPGSSSVAIQVQNLLQLFNIPQIAYSATSMDLSDKTLFKYFMRVVPSDAQQARAMVDIVKRYNWTYVSAVHTEGNYGESGMEAFKDMSAKEGICIAHSYKIYSNAGEQSFDKLLKKLTSHLPKARVVACFCEGMTVRGLLMAMRRLGLAGEFLLLGSDGWADRYDVTDGYQREAVGGITIKLQSPDVKWFDDYYLKLRPETNHRNPWFQEFWQHRFQCRLEGFPQENSKYNKTCNSSLTLKTHHVQDSKMGFVINAIYSMAYGLHNMQMSLCPGYAGLCDAMKPIDGRKLLESLMKTNFTGVSGDTILFDENGDSPGRYEIMNFKEMGKDYFDYINVGSWDNGELKMDDDEVWSKKSNIIRSVCSEPCEKGQIKVIRKGEVSCCWTCTPCKENEYVFDEYTCKACQLGSWPTDDLTGCDLIPVQYLRWGDPEPIAAVVFACLGLLATLFVTVVFIIYRDTPVVKSSSRELCYIILAGICLGYLCTFCLIAKPKQIYCYLQRIGIGLSPAMSYSALVTKTNRIARILAGSKKKICTKKPRFMSACAQLVIAFILICIQLGIIVALFIMEPPDIMHDYPSIREVYLICNTTNLGVVTPLGYNGLLILSCTFYAFKTRNVPANFNEAKYIAFTMYTTCIIWLAFVPIYFGSNYKIITMCFSVSLSATVALGCMFVPKVYIILAKPERNVRSAFTTSTVVRMHVGDGKSSSAA
# modifications: SNAP tag labelled with a cell-impermeant red fluorophore (SNAP-Red)
# notes: metabotropic glutamate receptor 5 (mGlu5), human, truncated after A856 by a stop codon; Construct from Cisbio Bioassays; the SNAP tag is extracellular; also called SNAP-Tag C-terminal mGlu5-Δ856 receptor; hmGlu5-ΔCter-A856; source: HEK293, transiently transfected; extracted with MNG3/CHS, not purified; on cells in the cAMP assay
# B2: mGlu5-Δ856-eGFP (receptor, human, UniProt P41594-2 21-856, looked up)
# chain: QSSERRVVAHMPGDIIIGALFSVHHQPTVDKVHERKCGAVREQYGIQRVEAMLHTLERINSDPTLLPNITLGCEIRDSCWHSAVALEQSIEFIRDSLISSEEEEGLVRCVDGSSSSFRSKKPIVGVIGPGSSSVAIQVQNLLQLFNIPQIAYSATSMDLSDKTLFKYFMRVVPSDAQQARAMVDIVKRYNWTYVSAVHTEGNYGESGMEAFKDMSAKEGICIAHSYKIYSNAGEQSFDKLLKKLTSHLPKARVVACFCEGMTVRGLLMAMRRLGLAGEFLLLGSDGWADRYDVTDGYQREAVGGITIKLQSPDVKWFDDYYLKLRPETNHRNPWFQEFWQHRFQCRLEGFPQENSKYNKTCNSSLTLKTHHVQDSKMGFVINAIYSMAYGLHNMQMSLCPGYAGLCDAMKPIDGRKLLESLMKTAFTGVSGDTILFDENGDSPGRYEIMNFKEMGKDYFDYINVGSWDNGELKMDDDEVWSKKSNIIRSVCSEPCEKGQIKVIRKGEVSCCWTCTPCKENEYVFDEYTCKACQLGSWPTDDLTGCDLIPVQYLRWGDPEPIAAVVFACLGLLATLFVTVVFIIYRDTPVVKSSSRELCYIILAGICLGYLCTFCLIAKPKQIYCYLQRIGIGLSPAMSYSALVTKTNRIARILAGSKKKICTKKPRFMSACAQLVIAFILICIQLGIIVALFIMEPPDIMHDYPSIREVYLICNTTNLGVVTPLGYNGLLILSCTFYAFKTRNVPANFNEAKYIAFTMYTTCIIWLAFVPIYFGSNYKIITMCFSVSLSATVALGCMFVPKVYIILAKPERNVRSAFTTSTVVRMHVGDGKSSSAA
# notes: metabotropic glutamate receptor 5 (mGlu5), human, truncated after A856; GP64 signal peptide (AcNPV) at the N-terminus; TEV protease site between receptor and eGFP, then 10x His; Theoretical MW printed: monomer 124,784 Da; also called mGlu5-eGFP; not shown: eGFP, C-terminal, kept
# How the values were obtained:
# [1] = biological target: the molecule itself; test: non-reducing SDS-PAGE; SNAP-Red-labelled receptor extracted from HEK293 cells with detergent, non-purified material; non-reducing conditions; fluorescence scan of the gel
# [2] = biological target: the molecule itself; test: non-reducing SDS-PAGE; purified receptor from Sf9 after SEC, Coomassie-blue stained gel; bands identified by mass spectrometry; reducing reagent raised the monomer band
Protein,stoichiometry N [1],stoichiometry N [2]
B1,2,
B2,,2
